Residue numbers refer to the chain shown, from its start. Names may count otherwise.
B1: CD80 variant Q33L/E35D/M47L/A71G/F92S IgV-Fc (Fc fusion)
chain: VIHVTKEVKEVATLSCGHNVSVEELAQTRIYWLKDKKMVLTMMSGDLNIWPEYKNRTIFDITNNLSIVILGLRPSDEGTYECVVLKYEKDASKREHLAEVT
B2: CD80 variant V22A/R29H/E35D/D46E/M47I IgV-Fc (Fc fusion)
chain: B1 chain with V22A, R29H, L33Q, D46E, L47I, G71A, S92F
B3: CD80 variant Q33L/E35D/M43I/L85Q/R94W IgV-Fc (Fc fusion)
chain: B1 chain with M43I, L47M, G71A, L85Q, S92F, R94W
B4: CD80 variant H18Y/E35D/V68M/L97Q IgV-Fc (Fc fusion)
chain: B1 chain with H18Y, L33Q, L47M, V68M, G71A, S92F, L97Q
B5: CD80 variant Q33L/E35D/M47L/V68M/L85Q/E88D IgV-Fc (Fc fusion)
chain: B1 chain with V68M, G71A, L85Q, E88D, S92F
B6: CD80 variant Q33L/E35D/M43V/M47I/A71G IgV-Fc (Fc fusion)
chain: B1 chain with M43V, L47I, S92F
B7: CD80 variant E35D/M47V/A71G/L85M/L97Q IgV-Fc (Fc fusion)
chain: B1 chain with L33Q, L47V, L85M, S92F, L97Q
B8: CD80 variant H18Y/Y31H/E35D/M47V/A71G/L85Q IgV-Fc (Fc fusion)
chain: B1 chain with H18Y, Y31H, L33Q, L47V, L85Q, S92F
B9: CD80 variant E35D/D46E/M47V/L97Q IgV-Fc (Fc fusion)
chain: B1 chain with L33Q, D46E, L47V, G71A, S92F, L97Q
B10: CD80 variant Q33L/E35D/N48K/L85Q/L97Q IgV-Fc (Fc fusion)
chain: B1 chain with L47M, N48K, G71A, L85Q, S92F, L97Q
B11: variant PD-L2 IgV Q82R/V89D Fc fusion (Fc fusion)
chain: LFTVTVPKELYIIEHGSNVTLECNFDTGSHVNLGAITASLQKVENDTSPHRERATLLEEQLPLGKASFHIPQVQVRDEGQYRCIIIYGDAWDYKYLTLKVKA
B12: variant PD-L2 IgV E59G/Q82R Fc fusion (Fc fusion)
chain: B11 chain with E59G, D89V
B13: variant PD-L2 IgV S39I/V89D Fc fusion (Fc fusion)
chain: B11 chain with S39I, R82Q
B14: variant PD-L2 IgV S67L/V89D Fc fusion (Fc fusion)
chain: B11 chain with S67L, R82Q
B15: variant PD-L2 IgV S67L/I86T Fc fusion (Fc fusion)
chain: B11 chain with S67L, R82Q, I86T, D89V
B16: variant PD-L2 IgV H15Q/S67L/R76G Fc fusion (Fc fusion)
chain: B11 chain with H15Q, S67L, R76G, R82Q, D89V
B17: variant PD-L2 IgV H15Q/R76G/I85F Fc fusion (Fc fusion)
chain: B11 chain with H15Q, R76G, R82Q, I85F, D89V
B18: variant PD-L2 IgV H15Q/T47A/Q82R Fc fusion (Fc fusion)
chain: B11 chain with H15Q, T47A, D89V
B19: variant PD-L2 IgV H15Q/C23S/I86T Fc fusion (Fc fusion)
chain: B11 chain with H15Q, C23S, R82Q, I86T, D89V
B20: variant PD-L2 IgV H15Q/S39I/I86T Fc fusion (Fc fusion)
chain: B11 chain with H15Q, S39I, R82Q, I86T, D89V
B21: variant PD-L2 IgV E44D/V89D/W91R Fc fusion (Fc fusion)
chain: B11 chain with E44D, R82Q, W91R
B22: variant PD-L2 IgV I13V/S67L/V89D Fc fusion (Fc fusion)
chain: B11 chain with I13V, S67L, R82Q
B23: variant PD-L2 IgV H15Q/S67L/I86T Fc fusion (Fc fusion)
chain: B11 chain with H15Q, S67L, R82Q, I86T, D89V
B24: variant PD-L2 IgV I13V/H15Q/E44D/V89D Fc fusion (Fc fusion)
chain: B11 chain with I13V, H15Q, E44D, R82Q
B25: variant PD-L2 IgV I13V/S39I/E44D/Q82R/V89D Fc fusion (Fc fusion)
chain: B11 chain with I13V, S39I, E44D

Legend:
[1] = biological target: CD28 (human) (UniProt P10747); test: flow cytometry, Jurkat cells (CD28)
[2] = biological target: CTLA4 (human); test: flow cytometry, CHO cells stably expressing CTLA4
[3] = biological target: PD-L1 (human); test: flow cytometry, CHO cells stably expressing PD-L1
[4] = biological target: human PD-1 (human) (UniProt Q15116)
Sequence of human PD-1 (human) (Q15116 25-288): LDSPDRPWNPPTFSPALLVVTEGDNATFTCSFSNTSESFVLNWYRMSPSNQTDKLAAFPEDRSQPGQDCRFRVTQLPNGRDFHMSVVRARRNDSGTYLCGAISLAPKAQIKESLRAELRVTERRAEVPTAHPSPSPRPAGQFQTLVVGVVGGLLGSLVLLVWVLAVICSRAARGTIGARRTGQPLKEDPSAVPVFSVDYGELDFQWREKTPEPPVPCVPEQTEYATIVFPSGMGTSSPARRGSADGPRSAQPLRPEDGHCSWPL

Sequence of PD-L1 (human) (chain, as listed by the source): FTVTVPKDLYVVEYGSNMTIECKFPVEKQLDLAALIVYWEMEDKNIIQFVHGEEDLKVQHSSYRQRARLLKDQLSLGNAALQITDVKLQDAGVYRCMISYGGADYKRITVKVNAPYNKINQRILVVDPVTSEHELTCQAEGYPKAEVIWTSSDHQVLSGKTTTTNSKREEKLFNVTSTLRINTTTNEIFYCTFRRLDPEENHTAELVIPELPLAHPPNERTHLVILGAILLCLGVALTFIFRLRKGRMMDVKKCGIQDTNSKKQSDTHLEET
Sequence of CTLA4 (human) (chain, as listed by the source): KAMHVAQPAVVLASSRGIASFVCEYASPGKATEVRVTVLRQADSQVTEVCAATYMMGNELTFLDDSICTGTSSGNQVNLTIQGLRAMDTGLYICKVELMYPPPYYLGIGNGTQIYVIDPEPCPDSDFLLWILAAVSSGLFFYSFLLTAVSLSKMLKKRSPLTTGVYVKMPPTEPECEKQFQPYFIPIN

Binder | Fold change to WT [1] [fold] | MFI at 33.3 nM [1] [MFI] | Fold change to WT CD80 [2] [fold] | MFI at 33.3 nM [2] [MFI] | Fold change to WT [3] [fold] | MFI at 33.3 nM [3] [MFI] | IFN gamma levels pg/mL (MLR) [4] [pg/mL]
B1 | 0.05 | 366 | 0.01 | 2110 | 3.53 | 28000 | –
B2 | 0.04 | 323 | 0.43 | 77400 | 3.2 | 25400 | –
B3 | 0.04 | 272 | 0.01 | 1080 | 3.65 | 29000 | –
B4 | 0.04 | 299 | 0.97 | 173000 | 15.3 | 122000 | –
B5 | 0.03 | 264 | 0.02 | 3530 | 15.8 | 126000 | –
B6 | 0.04 | 284 | 0.08 | 14000 | 9.82 | 78000 | –
B7 | 0.04 | 339 | 1.34 | 239000 | 7.77 | 61700 | –
B8 | 0.04 | 268 | 0.02 | 3840 | 9.61 | 76400 | –
B9 | 0.05 | 371 | 1.71 | 305000 | 2.45 | 19500 | –
B10 | 0.04 | 279 | 0.01 | 1180 | 5.69 | 45200 | –
B11 | – | – | – | – | – | – | 1620
B12 | – | – | – | – | – | – | 1510
B13 | – | – | – | – | – | – | 1310
B14 | – | – | – | – | – | – | 1230
B15 | – | – | – | – | – | – | 1020
B16 | – | – | – | – | – | – | 1430
B17 | – | – | – | – | – | – | 1730
B18 | – | – | – | – | – | – | 1320
B19 | – | – | – | – | – | – | 1850
B20 | – | – | – | – | – | – | 1420
B21 | – | – | – | – | – | – | 1560
B22 | – | – | – | – | – | – | 868
B23 | – | – | – | – | – | – | 1030
B24 | – | – | – | – | – | – | 1380
B25 | – | – | – | – | – | – | 936

Reference: US20250163127A1
